B1: evolved scFvWFL variant 37 reformatted as IgG1 (antibody, V domains shown)
VH: QVQLVPSGAEVKKPGSSVKVSCKASGGTFWFGAFTWVRQAPGQGLEWMGGIIPTFGLTNLAQNFQGRVTITADESTSTVYMELSSLRSEDTAVYYCARSSRIYDLNPSLTAYYDMDVWGQGTMVTVSS
VL: QSVLTQPPSVSAAPGQKVTISCSGPSSDIGNNYVSWYQQLPGTAPKLLIYDNNKRPSGIPDRFSGSKSGTSATLGITGLQTGDEADYYCGTWDSSLSAWVFGGGTKLTVL
B2: evolved scFvWFL variant 139 reformatted as IgG1 (antibody, V domains shown)
VH: QVQLVQSGAEVKKPGSSVKVSCKAGGGTFWSGAFTWVRQAPGQGLEWMGGIIPIFGLTNLAQNFQGRVTITADESTSTVYMELSSLRSEDTAVYYCARSSRTYDLNPSLTAYYDMDVWGQGTMVTVSS
VL: QSVLTQPPSVSAAPGQKVTISCSGSSSDIGNNYVSWYQQLPGTAPKLLIYDNNKRPSGIPDRFSGSKSGTTATLGITGLQTGDEADYYCGTWDSSLSAWVFGGGTKLTVL
B3: evolved scFvWFL variant 59 reformatted as IgG1 (antibody, V domains shown)
VH: QVQLVQSGAEVKKPGSSVKVSCKASGGTFRFGAFTWARQAPGQGLEWMGGIIPIFGLTNLAQNFQGRATITADESTSTVYMELSSLRSEDTAVYYCARSSRIYDLNPSLTAYYDMDVWGQGTMVTVSS
VL: QSVLTQPPSVSAAPGQKVTISCSGSSSDIGNNYVSWYQQLPGTAPKLLTYDNNKRPSGIPGRFSGSKSGTSATLGITGLQTGDEADYYCGTWDSSLSAWVFGGGTKLTVL
B4: MEDI578 (the parent antibody prior to affinity maturation into MEDI1912) (antibody, V domains shown)
VH: QVQLVQSGAEVKKPGSSVKVSCKASGGTFSTYGISWVRQAPGQGLEWMGGIIPIFDTGNSAQSFQGRVTITADESTSTAYMELSSLRSEDTAVYYCARSSRIYDLNPSLTAYYDMDVWGQGTMVTVSS
VL: QSVLTQPPSVSAAPGQKVTISCSGSSSNIGNNYVSWYQQLPGTAPKLLIYDNNKRPSGIPDRFSGSKSGTSATLGITGLQTGDEADYYCGTWDSSLSAWVFGGGTKLTVL
B5: evolved scFvWFL variant 126 reformatted as IgG1 (antibody, V domains shown)
VH: QVQLVQSGAEVKKPGSSVKVSCKASGGTFWFGAFTWVRQAPGQGLEWMGGFIPISGLTNLAQNFQGRVTITADESTSTVYMELSSLRSEDTAVYYCARSSRIYDLNPSLTAYYDMDVWGQGTMVTVSS
VL: QSVLTQPPSVSAAPGQKVTISCSGSSSDIGNNYVSWYQQLPGTAPKLLIYDNNKRPSGIPDRFSGSKSGTSATLGITGLQTGDEADYYCGTWDSSLSAWVFGGGTKLTVL
B6: IgGWFL (MEDI1912), human IgG1 antibody specific for human nerve growth factor (antibody, V domains shown)
VH: QVQLVQSGAEVKKPGSSVKVSCKASGGTFWFGAFTWVRQAPGQGLEWMGGIIPIFGLTNLAQNFQGRVTITADESTSTVYMELSSLRSEDTAVYYCARSSRIYDLNPSLTAYYDMDVWGQGTMVTVSS
VL: QSVLTQPPSVSAAPGQKVTISCSGSSSDIGNNYVSWYQQLPGTAPKLLIYDNNKRPSGIPDRFSGSKSGTSATLGITGLQTGDEADYYCGTWDSSLSAWVFGGGTKLTVL
B7: evolved scFvWFL variant 11 reformatted as IgG1 (antibody, V domains shown)
VH: QVQLVRSGAEVKKPGSSVKVSCKASGGTFWFGAFTWVRQAPGQGLEWMGGIIPIFGLTNLAQNFQGRVTITADESTSTVYMELSSLRSEDTAVYYCARSSRIYDLNPSLAAYYDMDVWGQGTMVTVSS
VL: QSVLTQPPSVSAAPGQKVTIPCSGSSSDIGNNYVSWYQQLPGTAPKLLIYDNNKRPSGIPDRFSGSKSGTSATLGVTGLQTGDEADYYCGTWDSSLSAWVFGGGTKLTVL
B8: evolved scFvWFL variant 72 reformatted as IgG1 (antibody, V domains shown)
VH: QVQLVQSGAEVKKPGSSVKVSCKASGGTSWFGAFTWVRQAPGQGLEWMGGTIPIFGLTNLAQNFQGRVTITADESTSTVYMELSSLRSDDTAVYYCARSSRIYDLNPSLTAYYDMGVWGQGTMVTVSS
VL: QSVLTQPPSVSAAPGQKVTISCSGSSSDIGDNYVSWYQQLPGTAPKLLIYDNNKRPSGIPDRFSGSKSGTSATLGITGLQTGDEADYYCGTWDSSLSAWVFGGGTKLTVL
B9: evolved scFvWFL variant 176 reformatted as IgG1 (antibody, V domains shown)
VH: QVQLVRSGAEVKKPGSSVKVSCKASGGTFWFGAFTWVRQAPGQGLEWMGGIIPIFGLTNLAQNFQGRVTITADESTSTVYMELSSLRSEDTAVYYCARSSRIYDLNPSLTAYYDMDVWGQGTMVTVSS
VL: QSVLTQPPSVSAAPGQKVTISCSGSSSDIGNNYVSWYQQLPGTAPKLLIYDNNKRPSGIPDRFSGSKSGTSATLGITGLQTGDEADYYCGTWDSSLSAWVFGGGTKLTVL
B10: evolved scFvWFL variant 128 reformatted as IgG1 (antibody, V domains shown)
VH: QVQLVQSGAEVKKPGSSVKVSCKASGGTFWFGAFTWVRQAPGQGLEWMGGIIPIFGLTNLAQNFQGRVTITADESTSTVYMELSSLRSEDTAVYYCARSSRIYDLNPSLTADYDMDVWGQGTMVTVSS
VL: QSVLTQPPSVSAAPGQEVTISCSGSSSDIGNNYVSWYQQPPGAAPKLLIYDNNKRPSGIPDRFSGSKSGTSATLGITGLQTGDEADYYCGTWDSSLSAWVFGGGTKLTVL
B11: evolved scFvWFL variant 16 reformatted as IgG1 (antibody, V domains shown)
VH: QVQLVQSGAEVKKPGSSVKVSCKASGGTFWSGAFTWVRQAPGQGLEWMGGIIPISGLTNLAQNFQGRVTITADESTSTAYMELSSLRSEDTAVYYCARSSRIYDLNPSLTAYYDMDVWGQGTMVTVSS
VL: QSVLTQPPSVSAAPGQKVTISCSGSSSDIGNNYVSWYQQLPGTAPKLLIYDNNKRPSGIPDRFSGSKSGTSATLGITGLQTGDEADYYCGTWDSSLSAWVIGGGTKLTVL
B12: IgGSTT, variant of MEDI1912 with W35S, F36T and L64T in VH (antibody, V domains shown)
VH: QVQLVQSGAEVKKPGSSVKVSCKASGGTFSTGAFTWVRQAPGQGLEWMGGIIPIFGTTNLAQNFQGRVTITADESTSTVYMELSSLRSEDTAVYYCARSSRIYDLNPSLTAYYDMDVWGQGTMVTVSS
VL: QSVLTQPPSVSAAPGQKVTISCSGSSSDIGNNYVSWYQQLPGTAPKLLIYDNNKRPSGIPDRFSGSKSGTSATLGITGLQTGDEADYYCGTWDSSLSAWVFGGGTKLTVL
B13: evolved scFvWFL variant 130 reformatted as IgG1 (antibody, V domains shown)
VH: QVQLVQSGAEVKKPGSSVKVSCKASGGAFWFGAFTWVRQAPGQGLEWMGGITPIFGHTNLAQNFQGRVTITADESTSTVYMELSSLRSEDTAVYYCARSSRIYDLNPSLTAYYDMDVWGQGTMVTVSS
VL: QSVLTQPPSVSAAPGQKVTISCSGSSSDIGNNYVSWYQQLPGTAPKLLIYDNNKRPSGIPDRFSGSKSGTSATLGITGLQTGDEADYYCGTWDSSLSAWVFGGGTKLTVL

These results are taken from paper PMC7156504 (2020).

In general, IC50 refers to the midpoint of a concentration-inhibition curve.

biotinylated nerve growth factor (NGF), sequence (P01138 122-241): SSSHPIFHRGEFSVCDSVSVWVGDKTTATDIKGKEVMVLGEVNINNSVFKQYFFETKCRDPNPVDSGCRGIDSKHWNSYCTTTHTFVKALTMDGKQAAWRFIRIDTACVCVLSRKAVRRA

This test addresses biotinylated nerve growth factor (NGF) (human, UniProt P01138 122-241, biotin (biotinylated in-house, sites not stated)). The test is described as follows: FRET; epitope competition with labelled IgGWFL.
Consider B1, for which the IC50 came out at 136 pM.

Consider B2, for which the concentration for half-maximal inhibition (IC50) was determined as 649 pM.

In turn, B3 showed an IC50 of 177 pM.

Molecule B4 gave an IC50 of 36800 pM.

As for B5, the half-inhibitory concentration (IC50) came out at 5690 pM. This IC50 is about 6.5-fold lower than that of the molecule before.

B6 gave an IC50 of 363 pM.

The molecule B7 returned an IC50 of 251 pM.

In turn, B8 yielded an IC50 of 1910 pM. This IC50 is about 7.6-fold higher than that of the molecule before.

B9 gave an IC50 of 201 pM. This IC50 lies about 9.5-fold lower than the previous one.

B10 showed an IC50 of 1410 pM.

As to B11, the IC50 was 935 pM.

B12: the IC50 stood at 573 pM.

For the molecule B13, the IC50 was determined as 2060 pM.
